Some results are limits rather than exact numbers.

T1: CAPRIN-1 protein on the cell surface of human cancer cell lines (human, UniProt Q14444 2-709)
T1 sequence (looked up): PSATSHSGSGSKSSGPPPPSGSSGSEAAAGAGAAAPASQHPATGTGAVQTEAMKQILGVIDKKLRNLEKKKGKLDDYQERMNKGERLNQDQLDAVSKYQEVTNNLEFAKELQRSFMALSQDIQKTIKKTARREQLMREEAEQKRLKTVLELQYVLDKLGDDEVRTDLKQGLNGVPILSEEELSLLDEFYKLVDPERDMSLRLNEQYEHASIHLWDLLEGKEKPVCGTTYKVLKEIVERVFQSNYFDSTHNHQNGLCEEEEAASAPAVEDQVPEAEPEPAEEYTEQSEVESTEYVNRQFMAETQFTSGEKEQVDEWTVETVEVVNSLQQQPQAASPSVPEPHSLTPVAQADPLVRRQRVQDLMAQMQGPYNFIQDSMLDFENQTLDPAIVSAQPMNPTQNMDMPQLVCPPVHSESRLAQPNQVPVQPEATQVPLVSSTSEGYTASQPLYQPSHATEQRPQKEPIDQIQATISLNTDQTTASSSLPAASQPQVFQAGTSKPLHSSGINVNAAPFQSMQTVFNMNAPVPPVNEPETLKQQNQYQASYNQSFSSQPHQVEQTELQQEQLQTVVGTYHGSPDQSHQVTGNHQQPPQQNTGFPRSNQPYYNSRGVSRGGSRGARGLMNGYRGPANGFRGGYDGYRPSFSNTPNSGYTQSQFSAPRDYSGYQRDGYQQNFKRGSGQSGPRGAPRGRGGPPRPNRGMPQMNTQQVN

B1: human-mouse chimeric comparative monoclonal antibody 3 (antibody, human IgG1, kappa)
heavy: not shown
light: RTTSHMDSDIQLTQSPASLSASVGETVTITCRASGNIHNYLAWYQQKQGKSPQLLVYNAKTLADGVPSRFSGSGSGTQYSLKINSLQPEDFGSYYCQHFWSTLTFGGGTKLEIKQSDTVAAPSVFIFPPSDEQLKSGTASVVCLLNNFYPREAKVQWKVDNALQSGNSQESVTEQDSKDSTYSLSSTLTLSKADYEKHKVYACEVTHQGLSSPVTKSFNRGEC
B2: human-mouse chimeric comparative monoclonal antibody 1 (antibody)
heavy: not shown
light: DIQMTQSPASLSASVGETVTITCRASGNIHNYLAWYQQKQGKSPQLLVYNAKTLADGVPSRFSGSGSGTQYSLKINSLQPEDFGSYYCQHFWSTLTFGAGTKLELKRTVAAPSVFIFPPSDEQLKSGTASVVCLLNNFYPREAKVQWKVDNALQSGNSQESVTEQDSKDSTYSLSSTLTLSKADYEKHKVYACEVTHQGLSSPVTKSFNRGEC
B3: human-mouse chimeric comparative monoclonal antibody 4 (antibody, human IgG1, kappa, V domains shown)
VH: EVQLHQFGAELVKPGASVKISCKASGYTFTDYNMDWVKQSHGKSLEWIGDINPNYDSTSYNQKFKGKATLTVDKSSSTAYMELRSLTSEDTAVYYCARSRSYDYEGFAYWGQGTLVTVSA
VL: SGDRVSLSCRASQSISNYLHWYQQKSHESPRLLIKYASQSISGIPSRFSGSGSGTDFTLSINSVETEDFGMYFCQQSNSWPYTFGAGTKLEIKQ
B4: human-mouse chimeric comparative monoclonal antibody 7 (antibody, human IgG1, kappa, V domains shown)
VH: LQESGAELARPGASVKLSCKASGYTFTSYWMQWVKQRPGQGLEWIGAIYPGDGDTRYTQKFKGKATLTADKSSSTAYMQLSSLASEDSAVYYCARGEYGNYFAYWGQGTTVTVSS
VL: TSDASLGERVTITCKASQDINSYLSWFQQKPGKSPKTLIYRANRLVDGVPSRFSGSGSGQDYSLTISSLEYEDMGIYYCLQYDEFPLTFGGGTKLEIKQ

This experiment has as its target T1, CAPRIN-1 protein on the cell surface of …. The experiment is described as follows: cell-based or functional assay.
Turning to B1, the “cytotoxic activity (ADCC, chromium 51 release) against MCF7, QG56, HCT-116, MIAPaCa-2 and Caki-2” value (“cytotoxic activity” for short) is < 5%.

Regarding B2, the “cytotoxic activity” value was < 5%.

For the molecule B3, the “cytotoxic activity” value was < 5%.

Turning to B4, the “cytotoxic activity” value was < 5%.
